Data as given in paper PMC6635489.

B1: GluK3: T249A/T397A (protein)
parent chain: MTAPWRRLRSLVWEYWAGFLVCAFWIPDSRGMPHVIRIGGIFEYADGPNAQVMNAEEHAFRFSANIINRNRTLLPNTTLTYDIQRIHFHDSFEATKKACDQLALGVVAIFGPSQGSCTNAVQSICNALEVPHIQLRWKHHPLDNKDTFYVNLYPDYASLSHAILDLVQSLKWRSATVVYDDSTGLIRLQELIMAPSRYNIRLKIRQLPIDSDDSRPLLKEMKRGREFRIIFDCSHTMAAQILKQAMAMGMMTEYYHFIFTTLDLYALDLEPYRYSGVNLTGFRILNVDNAHVSAIVEKWSMERLQAAPRAESGLLDGVMMTDAALLYDAVHIVSVCYQRASQMTVNSLQCHRHKPWRFGGRFMNFIKEAQWEGLTGRIVFNKTSGLRTDFDLDIISLKEDGLEKVGVWSPADGLNITEVAKGRGPNVTDSLTNRSLIVTTLLEEPFVMFRKSDRTLYGNDRFEGYCIDLLKELAHILGFSYEIRLVEDGKYGAQDDKGQWNGMVKELIDHKADLAVAPLTITHVREKAIDFSKPFMTLGVSILYRKPNGTNPSVFSFLNPLSPDIWMYVLLAYLGVSCVLFVIARFSPYEWYDAHPCNPGSEVVENNFTLLNSFWFGMGSLMQQGSELMPKALSTRIIGGIWWFFTLIIISSYTANLAAFLTVERMESPIDSADDLAKQTKIEYGAVKDGATMTFFKKSKISTFEKMWAFMSSKPSALVKNNEEGIQRTLTADYALLMESTTIEYITQRNCNLTQIGGLIDSKGYGIGTPMGSPYRDKITIAILQLQEEDKLHIMKEKWWRGSGCPEEENKEASALGIQKIGGIFIVLAAGLVLSVLVAVGEFIYKLRKTAEREQRSFCSTVADEIRFSLTCQRRLKHKPQPPMMVKTDAVINMHTFNDRRLPGKDSMSCSTSLAPVFP
B2: GluK3: T249A (protein)
parent chain: B1 parent chain
B3: GluK3: T249A/S404A (protein)
parent chain: B1 parent chain
B4: GluK3: N721A glycan knockout (Methods: T723A) (protein)
parent chain: B1 parent chain
B5: GluK3: T397A (protein)
parent chain: B1 parent chain
B6: GluK3: T397A/S404A (protein)
parent chain: B1 parent chain
B7: GluK3: S404A (protein)
parent chain: B1 parent chain

What was measured:
Settings in all cases: glycan lost; control: wild type GluK3
[1] = whole-cell dose-response, 30 µM-30 mM glutamate
[2] = whole-cell patch clamp, 30 mM glutamate, HEK293
[3] = surface biotinylation, anti-GluR6/7 blot, HEK293
[4] = two-pulse 30 mM glutamate protocol, whole-cell patch clamp

Protein | other: glutamate EC50 of channel current, EC50 [1] | other: desensitization time constant, other: mean weighted tau_des [2] | localisation_or_trafficking [3] | other: time constant of recovery from desensitization, other: tau_rec [4]
B1 | decreases, 6.5 vs 9.5 | no change, 4.3 ± 0.2 vs 3.8 ± 0.5 | no change | –
B2 | decreases, 7.2 vs 9.5 | no change, 3.7 ± 0.4 vs 3.8 ± 0.5 | no change | –
B3 | decreases, 5.3 vs 9.5 | no change, 4.1 ± 0.2 vs 3.8 ± 0.5 | no change | decreases, 0.3 vs 0.9
B4 | – | – | abolishes | –
B5 | decreases, 3.7 vs 9.5 | no change, 3.2 ± 0.2 vs 3.8 ± 0.5 | no change | no change, 0.8 vs 0.9
B6 | decreases, 5.7 vs 9.5 | no change, 4.0 ± 0.4 vs 3.8 ± 0.5 | no change | decreases, 0.5 vs 0.9
B7 | no change, 10.3 vs 9.5 | no change, 4.5 ± 0.3 vs 3.8 ± 0.5 | no change | decreases, 0.5 vs 0.9
